Key:
[1] = substrate: NC(Cc1ccc(N(CCCl)CCSC[C@H](NC(=O)CC[C@H](N)C(=O)O)C(=O)NCC(=O)O)cc1)C(=O)O; assay: TP_TRANSPORTER: uptake in membrane vesicle from MCF7/VP cells; format: functional, cell membranes
[2] = substrate: NC(CCC(=O)NC(CSCCN(CCCl)c1ccc(CCCC(=O)O)cc1)C(=O)NCC(=O)O)C(=O)O; assay: TP_TRANSPORTER: uptake in membrane vesicle from MCF/VP cells; format: functional, cell membranes

B1: Multidrug resistance-associated protein 1 (Homo sapiens) (protein)
chain: MALRGFCSADGSDPLWDWNVTWNTSNPDFTKCFQNTVLVWVPCFYLWACFPFYFLYLSRHDRGYIQMTPLNKTKTALGFLLWIVCWADLFYSFWERSRGIFLAPVFLVSPTLLGITMLLATFLIQLERRKGVQSSGIMLTFWLVALVCALAILRSKIMTALKEDAQVDLFRDITFYVYFSLLLIQLVLSCFSDRSPLFSETIHDPNPCPESSASFLSRITFWWITGLIVRGYRQPLEGSDLWSLNKEDTSEQVVPVLVKNWKKECAKTRKQPVKVVYSSKDPAQPKESSKVDANEEVEALIVKSPQKEWNPSLFKVLYKTFGPYFLMSFFFKAIHDLMMFSGPQILKLLIKFVNDTKAPDWQGYFYTVLLFVTACLQTLVLHQYFHICFVSGMRIKTAVIGAVYRKALVITNSARKSSTVGEIVNLMSVDAQRFMDLATYINMIWSAPLQVILALYLLWLNLGPSVLAGVAVMVLMVPVNAVMAMKTKTYQVAHMKSKDNRIKLMNEILNGIKVLKLYAWELAFKDKVLAIRQEELKVLKKSAYLSAVGTFTWVCTPFLVALCTFAVYVTIDENNILDAQTAFVSLALFNILRFPLNILPMVISSIVQASVSLKRLRIFLSHEELEPDSIERRPVKDGGGTNSITVRNATFTWARSDPPTLNGITFSIPEGALVAVVGQVGCGKSSLLSALLAEMDKVEGHVAIKGSVAYVPQQAWIQNDSLRENILFGCQLEEPYYRSVIQACALLPDLEILPSGDRTEIGEKGVNLSGGQKQRVSLARAVYSNADIYLFDDPLSAVDAHVGKHIFENVIGPKGMLKNKTRILVTHSMSYLPQVDVIIVMSGGKISEMGSYQELLARDGAFAEFLRTYASTEQEQDAEENGVTGVSGPGKEAKQMENGMLVTDSAGKQLQRQLSSSSSYSGDISRHHNSTAELQKAEAKKEETWKLMEADKAQTGQVKLSVYWDYMKAIGLFISFLSIFLFMCNHVSALASNYWLSLWTDDPIVNGTQEHTKVRLSVYGALGISQGIAVFGYSMAVSIGGILASRCLHVDLLHSILRSPMSFFERTPSGNLVNRFSKELDTVDSMIPEVIKMFMGSLFNVIGACIVILLATPIAAIIIPPLGLIYFFVQRFYVASSRQLKRLESVSRSPVYSHFNETLLGVSVIRAFEEQERFIHQSDLKVDENQKAYYPSIVANRWLAVRLECVGNCIVLFAALFAVISRHSLSAGLVGLSVSYSLQVTTYLNWLVRMSSEMETNIVAVERLKEYSETEKEAPWQIQETAPPSSWPQVGRVEFRNYCLRYREDLDFVLRHINVTINGGEKVGIVGRTGAGKSSLTLGLFRINESAEGEIIIDGINIAKIGLHDLRFKITIIPQDPVLFSGSLRMNLDPFSQYSDEEVWTSLELAHLKDFVSALPDKLDHECAEGGENLSVGQRQLVCLARALLRKTKILVLDEATAAVDLETDDLIQSTIRTQFEDCTVLTIAHRLNTIMDYTRVIVLDKGEIQEYGAPSDLLQQRGLFYSMAKDAGLV
B1 showed a Km [1] of 1.14 µM and a Km [2] of 0.37 µM.

— ChEMBL document CHEMBL2074453, “Role of multidrug resistance protein 1 (MRP1) and glutathione S-transferase A1-1 in alkylating agent resistance. Kinetics of glutathione conjugate formation and efflux govern differential cellular sensitivity to chlorambucil versus melphalan toxicity” (J Biol Chem, 2001)
